Reference: patent US20220144937A1 (JIANGSU HENGRUI MEDICINE, published 2022)
Substitutions are numbered along the chain they refer to.

T1: human IL-5 with his-tag (rhIL-5-his) (human, UniProt P05113 20-134)
T1 construct: It was expressed in HEK293 and purified from the supernatant; also called HuIL-5; recombinant human IL-5
T1 sequence: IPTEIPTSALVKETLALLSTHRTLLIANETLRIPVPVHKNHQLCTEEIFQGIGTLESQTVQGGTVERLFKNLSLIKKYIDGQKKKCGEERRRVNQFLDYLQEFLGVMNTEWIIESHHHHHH

T2: cyno IL-5 with his-tag (cyno (paragraph 156 says rhesus), UniProt P48093 20-134 (rhesus entry))
T2 construct: also called rhesus IL-5 with His-tag; monkey IL-5
T2 sequence: T1 sequence with T7A, D80G

B1: mAb1780 (antibody, V domains shown)
VH: QVKLLQSGAALVKPGDSVKMSCKASDYTFTEYLIHWVKQSQGRSLEWIGYINPYSGGTVYNEKFKSKATLTVDKFSSTAYMEFRRLTFEDSAIYYCARDGGYSDPLDYWGQGVMVTVSS
VL: DTVLTQSPALAVSPGERVSISCRASEGLTSYMHWYQQKPGQQPKLLIYKASNLASGVPARFSGSGSGTDFTLTIDPVEADDAATYFCQQNWNDPWTFGGGTKLELK
notes: Murine hybridoma antibody
B2: mAb1779 (antibody, V domains shown)
VH: QVKLLQSGAALVKPGDSVKMSCKASGYTFTDYIIHWVKQSHGKSLEWIGYFNPNSGGSNYNENFKRKATLTADKSSSTAYLEFSRVTSEDSAIYYCGRRIAWDHWYFDFWGPGTMVTVSS
VL: DIQMTQSPASLSASLGETVSIECLASEGISNDVAWYQQKSGRSPQLLVYAASRLQDGVPSRFSGSGSGTRYFFKISGMQPEDEADYFCQQGYKTPLTFGSGTKLEIK
notes: Murine hybridoma antibody
B3: mAb1773 (antibody, V domains shown)
VH: EVQLQQSLAELVRPGASVTLSCTASGFNIKNTYIHWVKQRPEQGLEWIGRIDPANGDTKHGPKFQGKATITADTSSNTAYLQFSSLTSEDTAIYYCFRYGIYPDHWGQGTPLTVSS
VL: QIVLTQSPALMSASPGEKVTMTCSASSSVNYIYWYQQKPRSSPKPWIYLTATLASGVPARFSGSGSGTSFSLTISRMEAEDAATYYCQQWNSYPYTFGGGTKLEIE
notes: Murine hybridoma antibody
B4: h1706-006 (antibody, human IgG1, kappa, V domains shown)
VH: EVQLVESGGGLVQPGGSLRLSCAASGFTFSHYYMAWVRQAPGKGLEWVSSINYEGNSAYYGDSVKGRFTISRDNSKNTLYLQMNSLRAEDTAVYYCATETLRESLDYWGQGTMVTVSS
VL: DIQMTQSPSSVSASVGDRVTITCRASQDIGNYLSWYQQKPGKSPKLLIYSASNLEVGVPSRFSGSGSGTDFTLTISSLQPEDFATYYCLQHKQFPRTFGGGTKVEIKR
notes: Constant regions as for h1706-003
B5: h1706-007 (antibody, human IgG1, kappa, V domains shown)
VH: B4 VH with S49T, V93T
VL: B4 VL
B6: h1706-004 (antibody, human IgG1, kappa, V domains shown)
VH: B4 VH with S49T, V93T
VL: B4 VL with S43A
B7: h1705-007 (antibody, human IgG1, kappa, V domains shown)
VH: B4 VH with N52S, N56D, S57I, A58T, T98S, E99Q, L105F, M113L
VL: B4 VL with G30A, S50G, A51T, G66R, H91D, Q93E
B8: h1705-004 (antibody, human IgG1, kappa, V domains shown)
VH: B4 VH with N52S, N56D, S57I, A58T, T98S, E99Q, L105F, M113L
VL: B4 VL with G30A, S43A, S50G, A51T, H91D, Q93E
B9: h1705-010 (antibody, human IgG1, kappa, V domains shown)
VH: B4 VH with N52S, N56D, S57I, A58T, T98S, E99Q, L105F, M113L
VL: B4 VL with G30A, L47V, S50G, A51T, G66R, T69S, F71Y, Y87F, H91D, Q93E
B10: h1706-003 (antibody, human IgG1, kappa, V domains shown)
VH: B4 VH
VL: B4 VL with S43A
B11: h1705-011 (antibody, human IgG1, kappa, V domains shown)
VH: B4 VH with S49T, N52S, N56D, S57I, A58T, V93T, T98S, E99Q, L105F, M113L
VL: B4 VL with G30A, L47V, S50G, A51T, G66R, T69S, F71Y, Y87F, H91D, Q93E
B12: h1705-005 (antibody, human IgG1, kappa, V domains shown)
VH: B4 VH with S49T, N52S, N56D, S57I, A58T, V93T, T98S, E99Q, L105F, M113L
VL: B4 VL with G30A, S43A, S50G, A51T, H91D, Q93E
B13: h1779-014 (antibody, human IgG1, kappa, V domains shown)
VH: EVQLVQSGAEVKKPGASVKVSCKASGYTFTDYIIHWVKQAPGQGLEWIGYFNPNSGGSNYNENFKRKATMTADKSISTAYLEFSRLRSEDTAVYYCARRIAWDHWYFDFWGQGTMVTVSS
VL: DIQMTQSPSSLSASVGDRVTITCLASEGISNDVAWYQQKPGKSPKLLVYAASRLQDGVPSRFSGSGSGTDYTFTISSLQPEDIATYYCQQGYKTPLTFGQGTKLEIKR
notes: See recheck
B14: Hu39D10 (antibody, human IgG4 S228P, kappa, V domains shown)
VH: EVQLVESGGGLVQPGGSLRLSCAVSGLSLTSNSVNWIRQAPGKGLEWVGLIWSNGDTDYNSAIKSRFTISRDTSKSTVYLQMNSLRAEDTAVYYCAREYYGYFDYWGQGTLVTVSS
VL: DIQMTQSPSSLSASVGDRVTITCLASEGISSYLAWYQQKPGKAPKLLIYGANSLQTGVPSRFSGSGSATDYTLTISSLQPEDFATYYCQQSYKFPNTFGQGTKVEVKR
notes: Anti-IL-5 antibody of WO2012083370A1, used as positive control; also called positive control; positive antibody
B15: h1773-007 (antibody, human IgG1, kappa, V domains shown)
VH: EVQLVESGGGLVQPGGSLKLSCAASGFTISNTYIHWVKQASGKGLEWIGRIDPAVGDTKHGPKFQGRFTISADDSKNTAYLQMNSLKTEDTAVYYCFRYGIYPDHWGQGTLVTVSS
VL: DIQLTQSPSSLSASVGDRVTITCSASSSVNYIYWYQQKPGKSPKPWIYLTATLASGVPSRFSGSGSGTDFTLTISSLQPEDFATYYCQQWNSYPYTFGGGTKVEIKR
B16: h1780-017 (antibody, human IgG1, kappa, V domains shown)
VH: EVQLVQSGAEVKKPGASVKVSCKASGYTFTEYLIHWVRQAPGQGLEWIGYINPYSGGTVYNEKFKSRATLTVDKSISTAYMEFSRLRSDDTAVYYCARDGGYSDPLDYWGQGTMVTVSS
VL: DTVLTQSPATLSLSPGERATLSCRASEGLTSYMHWYQQKPGQAPRLLIYKASNLASGVPARFSGSGSGTDFTLTISSLEPEDFATYFCQQNWNDPWTFGGGTKVEIKR
B17: h1705-003 (antibody, human IgG1, kappa, V domains shown)
VH: B4 VH with N52S, N56D, S57I, A58T, T98K, E99Q, L105F, M113L
VL: B4 VL with G30A, S43A, S50G, A51T, H91D, Q93E
B18: h1705-006 (antibody, human IgG1, kappa, V domains shown)
VH: B4 VH with N52S, N56D, S57I, A58T, T98K, E99Q, L105F, M113L
VL: B4 VL with G30A, S50G, A51T, G66R, H91D, Q93E
B19: h1705-009 (antibody, human IgG1, kappa, V domains shown)
VH: B4 VH with N52S, N56D, S57I, A58T, T98K, E99Q, L105F, M113L
VL: B4 VL with G30A, L47V, S50G, A51T, G66R, T69S, F71Y, Y87F, H91D, Q93E

target: T1, human IL-5 with his-tag (rhIL-5-his); assay: Biacore
Experimental: (§1) The affinity of the murine IL-5 antibody to be tested with human IL-5 was measured by Biacore T200 (GE) instrument.
(§2) The protein A biosensor chip was used to affinity capture of the molecules to be tested, and then the antigen (recombinant human and cyno IL-5 prepared in Example 1) flowed through the surface of the chip, and the reaction signal was detected in real time with the Biacore T200 instrument to obtain the binding and dissociation curves. After the dissociation of each experimental cycle was completed, the biosensor chip was washed and regenerated with glycine-hydrochloric acid regeneration solution (pH 1.5). BIA evaluation version 4.1 GE software was used to fit the data against (1:1) Langmuir model, and the affinity value was obtained and shown in Table 13.

Kd | Molecule
89.9 pM | B1
458 pM | B2
129 pM | B3

target: T1, human IL-5 with his-tag (rhIL-5-his); assay: cell-based or functional assay

IC50 of inhibition of IL-5 induced TF1 cell proliferation | Molecule
340 pM | B4
280 pM | B5
300 pM | B6
250 pM | B7
300 pM | B8
300 pM | B9
310 pM | B10
280 pM | B11
300 pM | B12
200 pM | B13
300 pM | B14
380 pM | B15
160 pM | B16

target: T1, human IL-5 with his-tag (rhIL-5-his); assay: cell-based or functional assay; remark: another data set of the same source

IC50 of blocking IL-5 induced eosinophil adhesion | Molecule
0.0118 µg/mL | B14
0.0212 µg/mL | B16

target: T1, human IL-5 with his-tag (rhIL-5-his); assay: Biacore T200, antibody captured on protein A chip, antigen in flow, 1:1 Langmuir
Experimental: as §1, §2

Kd | Molecule
89.9 pM | B1
458 pM | B2
129 pM | B3

target: T2, cyno IL-5 with his-tag; assay: as above
Experimental: as §1, §2

Kd | Molecule
312 pM | B1
9980 pM | B2
476 pM | B3

target: T1, human IL-5 with his-tag (rhIL-5-his); assay: as above; remark: another data set of the same source
Experimental: The affinity of the humanized IL-5 antibody to be tested with human IL-5 was measured by Biacore T200 (GE) instrument.
as §2, with “(prepared” for “(recombinant human and cyno IL-5 prepared”, “14.” for “13.”

Kd | Molecule
17.3 pM | B4
22.1 pM | B7
21.4 pM | B8
3350 pM | B17
4110 pM | B18
4550 pM | B19
20.5 pM | B9
18.9 pM | B10
23 pM | B11
21.6 pM | B12
412 pM | B13
207 pM | B15
77.8 pM | B16

target: T1, human IL-5 with his-tag (rhIL-5-his); assay: FACS blocking: biotin-IL-5 (100 ng/ml) binding to IL-5Rα/β-CHOS cells, antibody diluted
Experimental: Particular method was as follows: CD-CHO comprising […] and […] zeozin was used to culture CHO-S-IL-5Rα and β. During cell culture, the concentration should not exceed 3×10⁶ cells/ml. IL-5Rα/β-CHOS cells in good condition were centrifuged (at 1000 rpm, 5 min), and washed once with 10% FBS in PBS, and the cells were counted, the cell concentration was adjusted to 4×10⁶ cells/ml, and 25 μl was taken out and added into a round-bottom 96-well plate. The antibody to be tested was diluted with PBS solution comprising 10% FBS. The initial concentration was 200 μg/ml, and diluted at 1:10 for 8 gradient dilutions. 25 μl of 100 ng/ml IL-5 labeled by a biotin labeling kit (Tojin Chemical, LK03) was added, and fully mixed with 50 μl of diluted antibody at each concentration, and added into 96-well plate that has been added with cells, and incubated at 4° C. for 1 hour. After the incubation, the sample was centrifuged at 4° C. (400 g, 5 min), and the supernatant was removed, the plated was washed with 200 μl of pre-cooled PBS by centrifugation, repeated for twice; PE-Avidin secondary antibody diluted at 1:1333 was added and incubated in the dark at 4° C. for 40 min, centrifuged at 4° C.

IC50 | Molecule
8.78 µg/mL | IgG (antibody)
0.0496 µg/mL | B13
0.0251 µg/mL | B14
0.016 µg/mL | B16
